Where a chain is given by its changes, count along the chain named. Numbers in names are those of the source.

The values below come from publication PMC4835091, “Characterization of the FtsZ C-Terminal Variable (CTV) Region in Z-Ring Assembly and Interaction with the Z-Ring Stabilizer ZapD in E. coli Cytokinesis” (PLoS ONE, 2016).

The chains are these.
B1: GAL4 AD-FtsZ(RQAR) fusion (natural protein, E. coli, UniProt P0A9A6 1-383, looked up)
chain: MFEPMELTNDAVIKVIGVGGGGGNAVEHMVRERIEGVEFFAVNTDAQALRKTAVGQTIQIGSGITKGLGAGANPEVGRNAADEDRDALRAALEGADMVFIAAGMGGGTGTGAAPVVAEVAKDLGILTVAVVTKPFNFEGKKRMAFAEQGITELSKHVDSLITIPNDKLLKVLGRGISLLDAFGAANDVLKGAVQGIAELITRPGLMNVDFADVRTVMSEMGYAMMGSGVASGEDRAEEAAEMAISSPLLEDIDLSGARGVLVNITAGFDLRLDEFETVGNTIRAFASDNATVVIGTSLDPDMNDELRVTVVATGIGMDKRPEITLVTNKQVQQPVMDRYQQHGMAPLTQEQKPVAKVVNDNAPQTAKEPDYLDIPAFLRRQAR
notes: FtsZ of E. coli with the native CTV KQAD replaced by RQAR (net-positive); source: yeast two-hybrid fusion (pDEST-GADT7-ftsZ(RQAR) in S. cerevisiae SL3004, diploid after mating)
B2: GAL4 AD-FtsZ(DQAK) fusion (natural protein, E. coli, UniProt P0A9A6 1-383, looked up)
chain: B1 chain with R380D, R383K
notes: FtsZ of E. coli with the native CTV KQAD replaced by DQAK (net-neutral); source: yeast two-hybrid fusion (pDEST-GADT7-ftsZ(DQAK) in S. cerevisiae SL3004, diploid after mating)
B3: GAL4 AD-FtsZ(QQQQ) fusion (natural protein, E. coli, UniProt P0A9A6 1-383, looked up)
chain: B1 chain with R380Q, A382Q, R383Q
notes: FtsZ of E. coli with the native CTV KQAD replaced by QQQQ (net-neutral); source: yeast two-hybrid fusion (pDEST-GADT7-ftsZ(QQQQ) in S. cerevisiae SL3004, diploid after mating)
B4: GAL4 AD-FtsZ(NRNKRG) fusion (natural protein, E. coli | B. subtilis)
chain: MFEPMELTNDAVIKVIGVGGGGGNAVEHMVRERIEGVEFFAVNTDAQALRKTAVGQTIQIGSGITKGLGAGANPEVGRNAADEDRDALRAALEGADMVFIAAGMGGGTGTGAAPVVAEVAKDLGILTVAVVTKPFNFEGKKRMAFAEQGITELSKHVDSLITIPNDKLLKVLGRGISLLDAFGAANDVLKGAVQGIAELITRPGLMNVDFADVRTVMSEMGYAMMGSGVASGEDRAEEAAEMAISSPLLEDIDLSGARGVLVNITAGFDLRLDEFETVGNTIRAFASDNATVVIGTSLDPDMNDELRVTVVATGIGMDKRPEITLVTNKQVQQPVMDRYQQHGMAPLTQEQKPVAKVVNDNAPQTAKEPDYLDIPAFLRNRNKRG
notes: FtsZ of E. coli up to the CTV; the native CTV KQAD (380-383) is replaced by the next part; also called E. coli FtsZ with the B. subtilis CTV; source: yeast two-hybrid fusion (pDEST-GADT7-ftsZ(NRNKRG) in S. cerevisiae SL3004, diploid after mating)
B5: FtsZ(DQAK) (purified) (natural protein, E. coli, UniProt P0A9A6 1-383, looked up)
chain: B1 chain with R380D, R383K
notes: FtsZ of E. coli with the native CTV KQAD replaced by DQAK (net-neutral); pKHH9, pET-21b(+); also called net-neutral CTV mutant; source: E. coli C41(DE3), purified (25% saturated ammonium sulfate cut)
B6: FtsZ(QQQQ) (purified) (natural protein, E. coli, UniProt P0A9A6 1-383, looked up)
chain: B1 chain with R380Q, A382Q, R383Q
notes: FtsZ of E. coli with the native CTV KQAD replaced by QQQQ (net-neutral); pLT1, pET-21b(+); also called net-neutral CTV mutant; source: E. coli C41(DE3), purified (25% saturated ammonium sulfate cut)
B7: FtsZ(RQAR) (purified) (natural protein, E. coli, UniProt P0A9A6 1-383, looked up)
chain: B1 chain
notes: FtsZ of E. coli with the native CTV KQAD replaced by RQAR (net-positive); pAM3, pET-21b(+); also called net-positive CTV mutant; source: E. coli C41(DE3), purified (25% saturated ammonium sulfate cut)
B8: FtsZ(KQAK) (purified) (natural protein, E. coli, UniProt P0A9A6 1-383, looked up)
chain: B1 chain with R380K, R383K
notes: FtsZ of E. coli with the native CTV KQAD replaced by KQAK (net-positive); pKHH8, pET-21b(+); also called net-positive CTV mutant; source: E. coli C41(DE3), purified (25% saturated ammonium sulfate cut)
B9: FtsZ(DQAD) (purified) (natural protein, E. coli, UniProt P0A9A6 1-383, looked up)
chain: B1 chain with R380D, R383D
notes: FtsZ of E. coli with the CTV DQAD (net-negative) in place of KQAD; pKHH7, pET-21b(+); also called K380D; net-negative CTV mutant; source: E. coli C41(DE3), purified (20% ammonium sulfate cut)
B10: FtsZ(1-379) (purified) (domain or fragment, E. coli, UniProt P0A9A6 1-379, looked up)
chain: MFEPMELTNDAVIKVIGVGGGGGNAVEHMVRERIEGVEFFAVNTDAQALRKTAVGQTIQIGSGITKGLGAGANPEVGRNAADEDRDALRAALEGADMVFIAAGMGGGTGTGAAPVVAEVAKDLGILTVAVVTKPFNFEGKKRMAFAEQGITELSKHVDSLITIPNDKLLKVLGRGISLLDAFGAANDVLKGAVQGIAELITRPGLMNVDFADVRTVMSEMGYAMMGSGVASGEDRAEEAAEMAISSPLLEDIDLSGARGVLVNITAGFDLRLDEFETVGNTIRAFASDNATVVIGTSLDPDMNDELRVTVVATGIGMDKRPEITLVTNKQVQQPVMDRYQQHGMAPLTQEQKPVAKVVNDNAPQTAKEPDYLDIPAFLR
notes: also called FtsZ lacking the CTV residues; FtsZ without the CTV region; source: E. coli C41(DE3), purified (25% saturated ammonium sulfate cut)
B11: FtsZ(NRNKRG) (purified) (natural protein, E. coli | B. subtilis)
chain: B4 chain
notes: FtsZ of E. coli up to the CTV; the native CTV KQAD (380-383) is replaced by the next part; also called EcftsZCTVB; source: E. coli C41(DE3), purified (25% saturated ammonium sulfate cut)

The target of one data set is T1, GAL4 BD-ZapD fusion (E. coli, UniProt P36680 1-247).
T1 construct: ZapD, Z-ring stabilizer of E. coli; also called pDEST-GBKT7-zapD; source: yeast two-hybrid fusion (pDEST-GBKT7-zapD in S. cerevisiae PJ69-4A, diploid after mating)
T1 sequence (looked up): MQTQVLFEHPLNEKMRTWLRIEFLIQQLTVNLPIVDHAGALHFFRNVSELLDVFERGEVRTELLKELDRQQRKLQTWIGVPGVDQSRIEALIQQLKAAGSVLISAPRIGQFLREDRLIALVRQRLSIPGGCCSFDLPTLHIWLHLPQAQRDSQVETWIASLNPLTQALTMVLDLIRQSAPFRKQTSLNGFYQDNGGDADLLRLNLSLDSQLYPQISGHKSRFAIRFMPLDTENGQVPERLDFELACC
Briefly: two-hybrid; GAL4 BD-ZapD with GAL4 AD-FtsZ fusions in diploid yeast grown in YNB (-Leu-Trp) at 30°C; beta-galactosidase activity in Miller units, mean of 10 independent trials. To be noted: partners not purified.
As to B1, the β-galactosidase activity was found to be 155 Miller units.

For the molecule B2, the β-galactosidase activity was found to be 170 Miller units.

As to B3, the β-galactosidase activity was 115 Miller units.

B4: the β-galactosidase activity was 106 Miller units.

The next data set concerns the molecule itself. The data set is described as follows: sedimentation of FtsZ polymers; FtsZ or CTV mutant 5 μM alone in 50 mM K-MOPS pH 6.5, 50 mM KCl, 2.5 mM MgCl2, 3 μM BSA, 1 mM GTP, room temperature; TLA100.2, 80,000 rpm, 10 min; percent of FtsZ in the pellet by SDS-PAGE.
Details: not given
Take B5: the binding result is on record as “binds”.

In the case of B6, the binding result is “binds”.

For the molecule B7, the binding result is “binds”.

Turning to B8, the binding result was “binds”.

On to B9, for which the binding result was “binds”.

As for B10, the binding result is on record as “binds”.

Turning to B11, the binding result was “binds”.
